**Q.** Which results are given for gamma secretase (endogenous, HEK cells)?
**A.** AICD production and signaling activity (C99GVP-K28S): little difference in their respective AICD production (FIG. 9A, lower panels) and signaling activity (FIG. 9D); Aβ40 (secreted, ELISA) (C99GVP-K28S): the K28S substitution resulted in an even more substantial (˜90%) decrease in both measurements; total Aβ (secreted) (C99GVP-K28S): the K28S substitution resulted in an even more substantial (˜90%) decrease in both measurements; Aβ secretion (C99GVP-SREBP1-gsnk): also maintained normal Aβ secretion; AICD production and signaling activity (C99GVP-N27S): little difference in their respective AICD production (FIG. 9A, lower panels) and signaling activity (FIG. 9D); secreted Aβ (C99GVP-N27S): the other two mutations, G25S and N27S, showed no obvious effect on secreted Aβ; AICD production and signaling activity (C99GVP-G25S): little difference in their respective AICD production (FIG. 9A, lower panels) and signaling activity (FIG. 9D); secreted Aβ (C99GVP-G25S): the other two mutations, G25S and N27S, showed no obvious effect on secreted Aβ; AICD production and signaling activity (C99GVP-S26L): little difference in their respective AICD production (FIG. 9A, lower panels) and signaling activity (FIG. 9D); Aβ40 (secreted, ELISA) (C99GVP-S26L): a 52.7±2.3% drop of Aβ40; total Aβ (secreted) (C99GVP-S26L): The S26L mutation led to a 65.7±8.5% reduction in total Aβ; secreted Aβ (C99GVP-SLSS): This mutation led to a marked reduction (˜97%) in secreted Aβ

Reference: patent US20090023158A1
